{
  "source": "the Immune Epitope Database (IEDB)",
  "experiment_in_all_cases": "IEDB peptide-MHC binding, purified MHC/competitive/radioactivity; filed as Kd, often an IC50 or EC50 that approximates it; ≥ and ≤ were set here for values at or beyond the usual limits of such assays",
  "conditions_in_all_cases": "source organism: Toxoplasma gondii",
  "key": {"[1]": {"molecular_target": "HLA-B*07:02"}, "[2]": {"molecular_target": "HLA-B*35:01"}, "[3]": {"molecular_target": "HLA-B*35:03"}, "[4]": {"molecular_target": "HLA-B*42:01"}, "[5]": {"molecular_target": "HLA-B*51:01"}, "[6]": {"molecular_target": "HLA-B*53:01"}, "[7]": {"molecular_target": "HLA-B*54:01"}},
  "data": [
    {"sequence": "HPGSVNEFDF", "values": [
      {"measurement": "Kd", "setting": "[1]", "value": 3.62, "unit": "µM"},
      {"measurement": "Kd", "setting": "[2]", "value": 2.09, "unit": "µM"},
      {"measurement": "Kd", "setting": "[3]", "value": 11.5, "unit": "µM"},
      {"measurement": "Kd", "setting": "[4]", "value": 0.877, "unit": "µM"},
      {"measurement": "Kd", "setting": "[5]", "value": 14.7, "unit": "µM"},
      {"measurement": "Kd", "setting": "[6]", "value": 5.52, "unit": "µM"},
      {"measurement": "Kd", "setting": "[7]", "value": 0.854, "unit": "µM"}
    ]}
  ]
}
